Measured values: article PMC2673414 (Nucleic Acids Research, 2009)

Target: the molecule itself
Test: crystal structure

B1: human TREX2 protein (enzyme)
chain: MSEAPRAETFVFLDLEATGLPSVEPEIAELSLFAVHRSSLENPEHDESGALVLPRVLDKLTLCMCPERPFTAKASEITGLSSEGLARCRKAGFDGAVVRTLQAFLSRQAGPICLVAHNGFDYDFPLLCAELRRLGARLPRDTVCLDTLPALRGLDRAHSHGTRARGRQGYSLGSLFHRYFRAEPSAAHSAEGDVHTLLLIFLHRAAELLAWADEQARGWAHIEPMYLPPDDPSLEA
- binding result: binds
